{"source": "patent US20040110684A1", "about": "(UNIVERSITE CATHOLIQUE DE LOUVAIN, published 2004)", "binders": {"B1": {"name": "endothelial nitric oxide synthase (eNOS), endogenous, human umbilical vein endothelial cells (HUVECs) (enzyme)", "chain": "GNLKSVAQEPGPPCGLGLGLGLGLCGKQGPATPAPEPSRAPASLLPPAPEHSPPSSPLTQPPEGPKFPRVKNWEVGSITYDTLSAQAQQDGPCTPRRCLGSLVFPRKLQGRPSPGPPAPEQLLSQARDFINQYYSSIKRSGSQAHEQRLQEVEAEVAATGTYQLRESELVFGAKQAWRNAPRCVGRIQWGKLQVFDARDCRSAQEMFTYICNHIKYATNRGNLRSAITVFPQRCPGRGDFRIWNSQLVRYAGYRQQDGSVRGDPANVEITELCIQHGWTPGNGRFDVLPLLLQAPDDPPELFLLPPELVLEVPLEHPTLEWFAALGLRWYALPAVSNMLLEIGGLEFPAAPFSGWYMSTEIGTRNLCDPHRYNILEDVAVCMDLDTRTTSSLWKDKAAVEINVAVLHSYQLAKVTIVDHHAATASFMKHLENEQKARGGCPADWAWIVPPISGSLTPVFHQEMVNYFLSPAFRYQPDPWKGSAAKGTGITRKKTFKEVANAVKISASLMGTVMAKRVKATILYGSETGRAQSYAQQLGRLFRKAFDPRVLCMDEYDVVSLEHETLVLVVTSTFGNGDPPENGESFAAALMEMSGPYNSSPRPEQHKSYKIRFNSISCSDPLVSSWRRKRKESSNTDSAGALGTLRFCVFGLGSRAYPHFCAFARAVDTRLEELGGERLLQLGQGDELCGQEEAFRGWAQAAFQAACETFCVGEDAKAAARDIFSPKRSWKRQRYRLSAQAEGLQLLPGLIHVHRRKMFQATIRSVENLQSSKSTRATILVRLDTGGQEGLQYQPGDHIGVCPPNRPGLVEALLSRVEDPPAPTEPVAVEQLEKGSPGGPPPGWVRDPRLPPCTLRQALTFFLDITSPPSPQLLRLLSTLAEEPREQQELEALSQDPRRYEEWKWFRCPTLLEVLEQFPSVALPAPLLLTQLPLLQPRYYSVSSAPSTHPGEIHLTVAVLAYRTQDGLGPLHYGVCSTWLSQLKPGDPVPCFIRGAPSFRLPPDPSLPCILVGPGTGIAPFRGFWQERLHDIESKGLQPTPMTLVFGCRCSQLDHLYRDEVQNAQQRGVFGRVLTAFSREPDNPKTYVQDILRTELAAEVHRVLCLERGHMFVCGDVTMATNVLQTVQRILATEGDMELDEAGDVIGVLRDQQRYHEDIFGLTLRTQEVTSRIRTQSFSLQERQLRGAVPWAFDPPGSDTNSP"}, "B2": {"name": "caveolin, endogenous, mouse cardiac microvascular endothelial cells (CMECs) (other, UniProt P49817 2-178, looked up)", "chain": "SGGKYVDSEGHLYTVPIREQGNIYKPNNKAMADEVTEKQVYDAHTKEIDLVNRDPKHLNDDVVKIDFEDVIAEPEGTHSFDGIWKASFTTFTVTKYWFYRLLSTIFGIPMALIWGIYFAILSFLHIWAVVPCIKSFLIEIQCISRVYSIYVHTFCDPLFEAIGKIFSNIRISTQKEI", "notes": "also called caveolin-1"}, "B3": {"name": "caveolin, endogenous, human umbilical vein endothelial cells (HUVECs) (other, UniProt Q03135 2-178, looked up)", "chain": "B2 chain with V35L, T36S, T104A, I105L, F154V, I162V, I169V, S172N, T173L", "notes": "also called caveolin-1"}}, "key": {"[1]": {"molecular_target": "calmodulin (CaM), endogenous, human umbilical vein endothelial cells (HUVECs) (human, UniProt P0DP23 2-149)", "test": "eNOS IP, CaM immunoblot, VEGF-treated HUVEC lysates"}, "[2]": {"molecular_target": "T1, endothelial nitric oxide synthase (eNOS), endogenous, mouse cardiac microvascular endothelial cells (CMECs) (mouse, UniProt P70313 2-1202)", "T1 construct": "Endogenous protein in a cell lysate, detected by co-immunoprecipitation and immunoblot; also called endothelial NO synthase", "T1 sequence (looked up)": "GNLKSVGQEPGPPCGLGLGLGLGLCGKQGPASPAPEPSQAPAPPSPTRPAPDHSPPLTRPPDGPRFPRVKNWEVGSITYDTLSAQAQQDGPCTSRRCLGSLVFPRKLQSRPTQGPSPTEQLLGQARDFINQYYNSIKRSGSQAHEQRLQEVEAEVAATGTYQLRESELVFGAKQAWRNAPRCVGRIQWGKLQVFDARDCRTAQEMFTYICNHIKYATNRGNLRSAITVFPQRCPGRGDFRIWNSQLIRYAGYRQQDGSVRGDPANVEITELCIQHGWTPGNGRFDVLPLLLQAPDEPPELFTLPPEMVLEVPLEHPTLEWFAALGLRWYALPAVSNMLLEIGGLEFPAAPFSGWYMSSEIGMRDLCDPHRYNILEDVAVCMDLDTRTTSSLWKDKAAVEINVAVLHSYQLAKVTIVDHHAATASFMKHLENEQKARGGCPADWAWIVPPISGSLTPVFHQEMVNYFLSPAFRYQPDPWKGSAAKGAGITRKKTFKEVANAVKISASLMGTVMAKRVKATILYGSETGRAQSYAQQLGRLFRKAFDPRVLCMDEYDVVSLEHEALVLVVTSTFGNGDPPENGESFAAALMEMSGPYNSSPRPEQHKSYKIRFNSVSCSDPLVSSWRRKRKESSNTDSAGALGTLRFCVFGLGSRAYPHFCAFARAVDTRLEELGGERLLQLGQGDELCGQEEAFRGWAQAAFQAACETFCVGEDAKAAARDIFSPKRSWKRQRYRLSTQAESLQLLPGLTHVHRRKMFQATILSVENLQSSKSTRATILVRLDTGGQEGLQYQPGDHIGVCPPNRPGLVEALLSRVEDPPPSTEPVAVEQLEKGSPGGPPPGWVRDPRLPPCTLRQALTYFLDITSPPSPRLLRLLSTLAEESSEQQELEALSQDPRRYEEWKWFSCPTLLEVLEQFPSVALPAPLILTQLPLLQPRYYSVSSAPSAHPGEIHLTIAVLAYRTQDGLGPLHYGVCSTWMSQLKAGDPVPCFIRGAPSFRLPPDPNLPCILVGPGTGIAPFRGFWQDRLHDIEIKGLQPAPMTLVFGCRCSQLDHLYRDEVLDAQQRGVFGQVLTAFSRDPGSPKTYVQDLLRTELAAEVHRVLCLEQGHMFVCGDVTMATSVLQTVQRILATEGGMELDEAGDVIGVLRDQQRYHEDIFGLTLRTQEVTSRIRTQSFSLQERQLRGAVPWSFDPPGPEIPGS", "test": "co-IP with eNOS or caveolin antibodies, immunoblot, CMEC lysates"}, "[3]": {"molecular_target": "B1", "test": "caveolin IP, eNOS immunoblot, HUVEC lysates", "protocol": "Following exposure to VEGF (50 ng/ml) for increasing periods of time (0, 0.5, 2, 5, and 30 min), EC were collected, lysed, and cell extracts used for immunoprecipitation as follows."}}, "note": "Where a chain is given by its changes, count along the chain named."}
{"binder": "B1", "values": [{"measurement": "binding result", "setting": "[1]", "result": "binds"}]}
{"binder": "B2", "values": [{"measurement": "binding result", "setting": "[2]", "result": "binds"}]}
{"binder": "B3", "values": [{"measurement": "binding result", "setting": "[3]", "result": "binds"}]}
